This passage reports aggregated CPEB4 eluting in the void volume, normalized to control mice and stoichiometry N results from paper PMC11711090.

The target in experiment [1] is CPEB4 extracted from the brains of 6-month-old TgCPEB4Δ4 mice (human | mouse (endogenous in brain)) (UniProt Q17RY0). In words: SEC + other: SDD-AGE.
The target of experiment [2] is nCPEB4(NTD), N-terminal domain of neuronal CPEB4 (with microexon 4) (human) (UniProt Q17RY0). In words: SEC-MALS. (Size exclusion chromatography separates by hydrodynamic size, large species first.)

One may read the stoichiometry N as the number of molecules, sites or subunits per partner or assembly.

For “CPEB4 extracted from the brains of 6-month-old TgCPEB4Δ4 mice (from UniProt Q17RY0 1-729; Q7TN98 1-729) (natural protein)”, the aggregated CPEB4 eluting in the void volume, normalized to control mice in experiment [1] was 10.8. In turn, “nCPEB4(NTD), N-terminal domain of neuronal CPEB4 (with microexon 4) (from UniProt Q17RY0-2 1-448) (domain or fragment)” showed a stoichiometry N in experiment [2] of 350.
